Values of other authors in PMC4557399.

Tests used:
[1] = target: F1-ATP synthase beta subunit (UniProt P06576); assay: surface plasmon resonance
[2] = target: F1-ATP synthase beta subunit (Bos taurus) (UniProt P00829); assay: bovine retinal endothelial cell binding
F1-ATP synthase beta subunit (Bos taurus), sequence (P00829 47-528): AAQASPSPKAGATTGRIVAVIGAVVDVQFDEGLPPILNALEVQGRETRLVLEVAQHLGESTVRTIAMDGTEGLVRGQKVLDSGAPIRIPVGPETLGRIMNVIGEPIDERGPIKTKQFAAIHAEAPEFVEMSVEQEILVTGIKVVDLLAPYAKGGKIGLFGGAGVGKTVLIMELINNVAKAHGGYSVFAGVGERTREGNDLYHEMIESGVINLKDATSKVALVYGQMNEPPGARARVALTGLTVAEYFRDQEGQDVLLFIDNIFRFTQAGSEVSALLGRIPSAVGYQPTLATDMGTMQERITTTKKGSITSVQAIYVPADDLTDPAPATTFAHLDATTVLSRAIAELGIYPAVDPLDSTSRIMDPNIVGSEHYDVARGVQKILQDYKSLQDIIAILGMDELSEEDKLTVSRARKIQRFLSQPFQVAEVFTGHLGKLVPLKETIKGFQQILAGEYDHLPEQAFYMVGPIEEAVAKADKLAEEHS

PEDF, sequence (P36955 20-418): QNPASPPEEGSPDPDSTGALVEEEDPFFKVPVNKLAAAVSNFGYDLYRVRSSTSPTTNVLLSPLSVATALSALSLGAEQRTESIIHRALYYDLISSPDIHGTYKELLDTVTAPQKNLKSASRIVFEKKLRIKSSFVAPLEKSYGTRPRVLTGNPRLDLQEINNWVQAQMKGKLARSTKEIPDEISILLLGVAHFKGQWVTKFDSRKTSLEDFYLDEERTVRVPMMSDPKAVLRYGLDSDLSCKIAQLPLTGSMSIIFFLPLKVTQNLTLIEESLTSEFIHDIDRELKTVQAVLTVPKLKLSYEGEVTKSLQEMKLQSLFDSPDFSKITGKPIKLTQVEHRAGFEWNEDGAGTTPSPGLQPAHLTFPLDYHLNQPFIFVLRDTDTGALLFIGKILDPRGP
F1-ATP synthase beta subunit, sequence (P06576 48-529): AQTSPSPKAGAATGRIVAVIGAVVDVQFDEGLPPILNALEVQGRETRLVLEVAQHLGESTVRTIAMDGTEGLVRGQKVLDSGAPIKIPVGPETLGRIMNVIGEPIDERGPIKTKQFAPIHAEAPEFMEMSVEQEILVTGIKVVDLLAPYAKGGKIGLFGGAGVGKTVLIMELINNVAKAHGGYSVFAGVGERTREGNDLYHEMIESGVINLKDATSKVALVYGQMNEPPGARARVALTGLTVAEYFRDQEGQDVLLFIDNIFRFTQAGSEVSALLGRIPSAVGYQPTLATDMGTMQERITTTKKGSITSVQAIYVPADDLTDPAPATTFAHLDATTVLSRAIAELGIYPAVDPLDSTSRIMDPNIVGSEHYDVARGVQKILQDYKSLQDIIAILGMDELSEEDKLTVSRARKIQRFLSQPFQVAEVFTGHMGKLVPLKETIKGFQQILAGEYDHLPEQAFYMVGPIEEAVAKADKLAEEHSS

PEDF (from UniProt P36955)
Kd [1]: 1.51 nM
Kd [2]: 4 nM
